# Patent publication US20230295310A1 (ABCELLERA BIOLOGICS, published 2023)
# Positions count from the first letter of the chain named.
# B1: mAb 292 (antibody, V domains shown)
# VH: EVQLLESGGGLVQPGGSRRLSCAASGFTFSTYAMSWVRQAPGKGLEWVSVINGRGDDTNYADSVKGRFTISRDNSKNILFLQMNSLRAEDTAVYYCAKKYSYYYYYMDVWGKGTTVTVSS
# VL: SYELTQPLSVSVALGQTARITCGGNNIGSKDVHWYQQKPGQAPVLVIYRDSNRPSGIPERFSGSNSGNTATLTISRAQAGDEADYYCQVWDSRTAVFGGGTQLTAL
# notes: VH and VL only
# B2: mAb 306 (antibody, V domains shown)
# VH: EVQLLESGGGLVQPGGSLRLSCAASGFTFNSYAMSWVRQAPGRGLEWVSAISGRKSTTYYADSVKGRFTISRDNSKNTLYLQMNSLRAEDTAVYYCAKLWNYYYYYMDVWGKGTTVTVSS
# VL: B1 VL with R93S
# notes: VH and VL only
# B3: mAb 301 (antibody, V domains shown)
# VH: B1 VH with T31S, N52S, D57N, D73E, I78M, F80Y
# VL: B1 VL
# notes: VH and VL only
# B4: mAb 304 (antibody, V domains shown)
# VH: B1 VH with T31S, N52S, D57N, D73E, F80Y
# VL: B1 VL
# notes: VH and VL only
# B5: mAb 303 (antibody, V domains shown)
# VH: EVHLLESGGGLVQPGGSLRLSCAASGFTFSSYAMNWVRQAPGKGLEWISIISGGRRSGITYYAASVKGRFTISRDNSKNTLDLQMNSLRAEDTAVYYCAKMYNYYYYYIDVWGKGTTVTVSS
# VL: B1 VL with R93N
# notes: VH and VL only
# B6: mAb 316 (antibody, V domains shown)
# VH: B1 VH with S30R
# VL: B1 VL
# notes: VH and VL only
# B7: mAb 297 (antibody, V domains shown)
# VH: B5 VH with H3Q, I48V, S57D, G58D, D82Y
# VL: B1 VL with R19K, R93N
# notes: VH and VL only
# B8: mAb 296 (antibody, V domains shown)
# VH: B2 VH with N30S, R43K, R54S, K55G, S56G, A61T, L99K, W100Y, N101S
# VL: B1 VL with D31N, R93S
# notes: VH and VL only
# B9: mAb 300 (antibody, V domains shown)
# VH: EVQLLESGGGLVQPGGSLRLSCAASGFTFSRYAMSWVRQAPGRGLEWVSTISGSGGRTYYVDSVKGRFTISRDNSKNTLYLQMNSLRAEDTAVYYCAKMFSYYYYYMDVWGKGTTVTVSS
# VL: EIVMTQSPATLSLSPGKRATLSCRASQSVSTTYLSWYLQKPGQAPRLLIYGASTRATGIPARFSGSGSGTDFTLTISSLQPEDFAVYYCQQDYNLPPYTFGQGTKLEIK
# notes: VH and VL only
# B10: mAb 289 (antibody, V domains shown)
# VH: B1 VH with T31S, Y32F, N52S, G53S, D57N, I78T, F80Y
# VL: B1 VL with D31N, Y35H, D50E, I74S, R93S
# notes: VH/VL only
# B11: mAb 279 (antibody, V domains shown)
# VH: QVQLVQSGAEVKKPGASVKVSCKASGYTFTGYYMHWVRQAPGQGLEWMGWIYPNSGRTNYAQKFQGRVTMTRDTSISTAYMELTRLISDDTAVYYCARLWDLYFDYWGQGTLVTVSS
# VL: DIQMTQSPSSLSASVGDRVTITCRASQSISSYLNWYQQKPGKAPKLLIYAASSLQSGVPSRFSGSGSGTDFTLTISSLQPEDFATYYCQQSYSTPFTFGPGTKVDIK
# notes: VH/VL only
# B12: mAb 280 (antibody, V domains shown)
# VH: B11 VH with K19R
# VL: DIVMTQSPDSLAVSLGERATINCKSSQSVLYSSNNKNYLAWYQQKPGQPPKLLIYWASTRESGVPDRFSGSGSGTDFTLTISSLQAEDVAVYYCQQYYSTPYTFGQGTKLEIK
# notes: VH/VL only
# B13: mAb 281 (antibody, V domains shown)
# VH: B11 VH with K19R
# VL: DIVMTQSPLSLPVTPGEPASISCRSSQSLLHYNGNNYLDWYLQKPGQSPHLLIYLGSNRASGVPDRFSGSGSGTDFTLKIIRVEAEDVGIYYCMQGLQSPYTFGQGTKLEIK
# notes: VH/VL only
# B14: mAb 282 (antibody, V domains shown)
# VH: QVQLVQSETEVKKPGASVRVSCKASGYTFTGYYVHWVRQAPGQGLEWMGWINPKSGRTSYSQKFQDRVTMTRDTSISTVYMELSRLRSDDTAVYYCARILELIFDYWGQGTLVTVSS
# VL: EIVLTQSPDFQSVTPKEKVTITCRASQSIGSSLHWYQQKPDQSPKLLIKYASQSFSGVPSRFSGSGSGTDFTLTINSLEAEDAATYYCHQSSSLPTFGPGTKVDIK
# notes: VH/VL only
# B15: mAb 277 (antibody, V domains shown)
# VH: QVQLVQSGAAMKKPGASVKVSCKASGSTFTGYYLHWVRQAPGQGLEWMGWIYLNSGRTKYAQKFQGRVTMTRDTSINTAHMELSRLTFDDTAVYYCVRVLELIFDYWGQGTLVTVSS
# VL: DIQLTQSPSFLSASVGDRVTITCRASQGISSYLAWYQQKPGKAPKLLIYAASTLQSGVPSRFSGSGSGTEFTLTISSLQPEDFATYYCQQLNSYPWTFGQGTKVEIK
# notes: VH/VL only
# B16: mAb 278 (antibody, V domains shown)
# VH: B15 VH with N77S, V97A
# VL: not shown
# B17: mAb 275 (antibody, V domains shown)
# VH: QVQLVQSGSELKKPGASVKVSCKASGYTFTKYAMNWVRQAPGQGLEWMGWINTNTGNPTYAQGFTGRFVFSLDASVTTAYLQISSLKAEDTAVYYCAREGHYDFWGGFYYFDYWGQGTLVTVSS
# VL: EIMLTQSPATLSLSPGERGTLSCRASQSVSSYLAWYQQKPGQAPRLVIYDVSNRATGIPARFSGSGSGTDFILTIGSLEPEDFAVYYCQQRSNWPLTFGGGTKVEIK
# notes: VH/VL only
# Target: T1, cynomolgus monkey CD3 (cynomolgus monkey, UniProt Q95LI5 22-198; Q95LI8 22-171; Q95LI7 23-181)
# T1 construct: whole, on cells; CD3 on purified cynomolgus monkey CD3 pan T cells; also called cyno CD3; CD3 on cyno primary T cells
# Assay: flow cytometry, cyno primary T cells
# Summary of the method: (§1)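 Antibodies at 25 nM in PBS + 2% FBS were incubated with CD3-expressing cells for 30 min at 4 °C and read by flow cytometry. Median fluorescence intensity was normalized to isotype control as fold over isotype; ≥10 counted as binding.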
# T1 sequence (Q95LI5 22-198, chain 1 of 3): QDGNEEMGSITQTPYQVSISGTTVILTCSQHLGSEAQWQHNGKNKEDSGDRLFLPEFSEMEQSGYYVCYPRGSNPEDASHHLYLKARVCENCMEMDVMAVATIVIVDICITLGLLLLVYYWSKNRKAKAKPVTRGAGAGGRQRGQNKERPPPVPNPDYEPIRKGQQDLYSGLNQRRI
# T1 sequence (Q95LI8 22-171, chain 2 of 3): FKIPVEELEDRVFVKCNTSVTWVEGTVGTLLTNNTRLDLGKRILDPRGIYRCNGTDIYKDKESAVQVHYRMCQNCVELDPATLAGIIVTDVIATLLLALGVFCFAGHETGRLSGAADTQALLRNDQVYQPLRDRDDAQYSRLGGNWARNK
# T1 sequence (Q95LI7 23-181, chain 3 of 3): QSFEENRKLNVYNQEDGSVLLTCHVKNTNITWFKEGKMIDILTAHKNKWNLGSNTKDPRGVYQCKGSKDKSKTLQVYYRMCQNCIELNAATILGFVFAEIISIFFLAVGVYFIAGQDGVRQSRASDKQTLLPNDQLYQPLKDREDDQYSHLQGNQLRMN
row,Binder,binding result
1,B1,no binding (tested: FOI ≥10 = positive; 25 nM)
2,B2,no binding (tested: FOI ≥10 = positive; 25 nM)
3,B3,no binding (tested: FOI ≥10 = positive; 25 nM)
4,B4,no binding (tested: FOI ≥10 = positive; 25 nM)
5,B5,no binding (tested: FOI ≥10 = positive; 25 nM)
6,B6,no binding (tested: FOI ≥10 = positive; 25 nM)
7,B7,no binding (tested: FOI ≥10 = positive; 25 nM)
8,B8,no binding (tested: FOI ≥10 = positive; 25 nM)
9,B9,no binding (tested: FOI ≥10 = positive; 25 nM)

# Target: T2, cynomolgus monkey CD3 expressed on cyno primary T cells (cynomolgus monkey, UniProt Q95LI5 22-198; Q95LI8 22-171; Q95LI7 23-181)
# T2 construct: whole, on cells; CD3 complex on purified cynomolgus monkey CD3 pan T cells; also called cyno CD3
# Assay: flow cytometry, cyno primary T cells
# Summary of the method: as §1
# T2 sequence (Q95LI5 22-198, chain 1 of 3): as the sequence (Q95LI5 22-198, chain 1 of 3) above
# T2 sequence (Q95LI8 22-171, chain 2 of 3): as the sequence (Q95LI8 22-171, chain 2 of 3) above
# T2 sequence (Q95LI7 23-181, chain 3 of 3): as the sequence (Q95LI7 23-181, chain 3 of 3) above
row,Binder,binding result
1,B10,no binding (tested: FOI <10 (FOI >=10 = positive); 25 nM)
2,B11,no binding (tested: FOI <10 (FOI >=10 = positive); 25 nM)
3,B12,no binding (tested: FOI <10 (FOI >=10 = positive); 25 nM)
4,B13,no binding (tested: FOI <10 (FOI >=10 = positive); 25 nM)
5,B14,no binding (tested: FOI <10 (FOI >=10 = positive); 25 nM)
6,B15,no binding (tested: FOI <10 (FOI >=10 = positive); 25 nM)
7,B16,no binding (tested: FOI <10 (FOI >=10 = positive); 25 nM)
8,B17,no binding (tested: FOI <10 (FOI >=10 = positive); 25 nM)

# Target: T3, human CD3 expressed on cells (Jurkat cells; human primary T cells) (human, UniProt P07766 23-207; P04234 22-171; P09693 23-182)
# T3 construct: whole, on cells
# Assay: flow cytometry, Jurkat cells
# Experimental: (§2) Purified antibodies were confirmed to bind CD3 expressed on cells using the CytoFLEX S or LX flow cytometers (Beckman Coulter). Antibodies were diluted to 25 nM in FACS buffer (PBS+2% FBS) and were incubated with CD3-expressing cells for 30 minutes at 4° C. […] The median fluorescence intensity of the binding signal for each antibody was normalized to the isotype control to obtain a fold over isotype value. An antibody with a fold over isotype (FOI) of ≥10 was considered to be positive for binding.
# T3 sequence (P07766 23-207, chain 1 of 3): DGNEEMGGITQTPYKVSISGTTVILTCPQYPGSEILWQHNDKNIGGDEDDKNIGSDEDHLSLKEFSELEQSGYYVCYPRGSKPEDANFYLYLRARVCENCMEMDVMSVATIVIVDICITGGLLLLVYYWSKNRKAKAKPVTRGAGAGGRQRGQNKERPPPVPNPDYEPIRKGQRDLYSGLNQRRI
# T3 sequence (P04234 22-171, chain 2 of 3): as the sequence (Q95LI8 22-171, chain 2 of 3) above, with V5I, K15N, V20I, T32S, N33D, N34I, A64T, N74S, L83V, R141H counted along it
# T3 sequence (P09693 23-182, chain 3 of 3): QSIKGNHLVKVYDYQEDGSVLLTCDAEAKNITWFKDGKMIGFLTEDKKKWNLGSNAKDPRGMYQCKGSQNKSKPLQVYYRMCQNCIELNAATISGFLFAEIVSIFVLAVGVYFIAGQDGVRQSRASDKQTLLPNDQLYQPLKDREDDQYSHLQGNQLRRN
row,Binder,binding result
1,B10,no binding (tested: FOI <10 (FOI >=10 = positive); 25 nM)
2,B11,no binding (tested: FOI <10 (FOI >=10 = positive); 25 nM)
3,B12,no binding (tested: FOI <10 (FOI >=10 = positive); 25 nM)
4,B13,no binding (tested: FOI <10 (FOI >=10 = positive); 25 nM)
5,B14,no binding (tested: FOI <10 (FOI >=10 = positive); 25 nM)
6,B15,no binding (tested: FOI <10 (FOI >=10 = positive); 25 nM)
7,B16,no binding (tested: FOI <10 (FOI >=10 = positive); 25 nM)
8,B17,no binding (tested: FOI <10 (FOI >=10 = positive); 25 nM)

# Target: T4, human CD3 (human, UniProt P07766 23-207; P04234 22-171; P09693 23-182)
# T4 construct: whole, on cells; also called CD3 on Jurkat cells; CD3 on human primary T cells
# Assay: flow cytometry, Jurkat cells, 25 nM antibody
# Experimental: as §2
# T4 sequence (P07766 23-207, chain 1 of 3): as the sequence (P07766 23-207, chain 1 of 3) above
# T4 sequence (P04234 22-171, chain 2 of 3): as the sequence (Q95LI8 22-171, chain 2 of 3) above, with V5I, K15N, V20I, T32S, N33D, N34I, A64T, N74S, L83V, R141H counted along it
# T4 sequence (P09693 23-182, chain 3 of 3): as the sequence (P09693 23-182, chain 3 of 3) above
row,Jurkat Cell Binding (FOI),Binder
1,227 FOI,B1
2,216 FOI,B2
3,253 FOI,B3
4,234 FOI,B4
5,247 FOI,B5
6,253 FOI,B6
7,220 FOI,B7
8,167 FOI,B8
9,68 FOI,B9

# Target: T4, human CD3
# Assay: flow cytometry, human primary T cells, 25 nM antibody
# Experimental: as §2
row,Human primary T Cell Binding (FOI),Binder
1,255 FOI,B1
2,219 FOI,B2
3,283 FOI,B3
4,226 FOI,B4
5,256 FOI,B5
6,241 FOI,B6
7,211 FOI,B7
8,183 FOI,B8
9,26.7 FOI,B9
